Experimental data reported in US20050064507A1, “Determining kinase specificity” (priority 2003, published 2005).

What was measured:
PKC-delta = biological target: T1, PKC-delta (Homo sapiens, UniProt Q05655); assay: In vitro kinase assay: peptide phosphorylation by PKC-delta; assay type: biochemical
T1 construct: purchased Calbiochem
In short: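 Biotin-Lys-dansyl-Lys-Pro-Pro-Gly-linked proteomic peptides (12–21-residue core) phosphorylated by PKC-delta in HEPES/Triton/CaCl2/MgCl2 buffer with phosphatidyl serine and PMA, 100 μM [γ-32P]ATP, 30° C., ~10 min, stoichiometry ≤5%; streptavidin-plate capture. Signal normalized as % of best peptide substrate.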

PKC-theta = biological target: T2, PKC-theta (Homo sapiens, UniProt Q04759); assay: In vitro kinase assay: peptide phosphorylation by PKC-theta; assay type: biochemical
T2 construct: His-tag; made in house; host or cells: baculovirus-infected Sf9 cells
T2 sequence (Q04759 whole entry): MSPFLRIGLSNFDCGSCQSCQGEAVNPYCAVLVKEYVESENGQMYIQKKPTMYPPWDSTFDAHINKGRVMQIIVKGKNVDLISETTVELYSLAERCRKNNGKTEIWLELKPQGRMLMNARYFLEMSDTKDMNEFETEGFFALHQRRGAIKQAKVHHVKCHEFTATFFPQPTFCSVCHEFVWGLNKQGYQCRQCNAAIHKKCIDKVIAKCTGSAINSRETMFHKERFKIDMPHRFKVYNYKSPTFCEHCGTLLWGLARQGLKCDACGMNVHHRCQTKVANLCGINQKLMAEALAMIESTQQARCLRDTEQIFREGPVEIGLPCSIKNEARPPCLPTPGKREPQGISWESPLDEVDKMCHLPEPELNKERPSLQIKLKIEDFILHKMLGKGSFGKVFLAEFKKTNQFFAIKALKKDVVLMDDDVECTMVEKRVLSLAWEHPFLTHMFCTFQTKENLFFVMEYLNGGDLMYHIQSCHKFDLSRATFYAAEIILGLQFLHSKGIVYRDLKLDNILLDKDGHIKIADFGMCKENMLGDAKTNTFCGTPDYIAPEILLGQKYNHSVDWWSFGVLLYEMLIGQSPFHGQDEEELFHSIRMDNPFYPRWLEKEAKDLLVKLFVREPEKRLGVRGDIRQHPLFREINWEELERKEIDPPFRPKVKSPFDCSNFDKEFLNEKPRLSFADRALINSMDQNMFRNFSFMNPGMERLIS
In short: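 Recombinant human PKC-theta, expressed in baculovirus-infected Sf9 cells and purified on a nickel chelating column, was incubated with biotinylated peptides, 100 μM ATP containing ^32P-gamma ATP, and PKC buffer with CaCl2, MgCl2, phosphatidyl serine and PMA at 30° C. Reactions were stopped with ATP/EDTA. Peptides were captured on streptavidin-coated plates, and phosphorylation was normalized to the best substrate.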

T1 sequence (Q05655 whole entry): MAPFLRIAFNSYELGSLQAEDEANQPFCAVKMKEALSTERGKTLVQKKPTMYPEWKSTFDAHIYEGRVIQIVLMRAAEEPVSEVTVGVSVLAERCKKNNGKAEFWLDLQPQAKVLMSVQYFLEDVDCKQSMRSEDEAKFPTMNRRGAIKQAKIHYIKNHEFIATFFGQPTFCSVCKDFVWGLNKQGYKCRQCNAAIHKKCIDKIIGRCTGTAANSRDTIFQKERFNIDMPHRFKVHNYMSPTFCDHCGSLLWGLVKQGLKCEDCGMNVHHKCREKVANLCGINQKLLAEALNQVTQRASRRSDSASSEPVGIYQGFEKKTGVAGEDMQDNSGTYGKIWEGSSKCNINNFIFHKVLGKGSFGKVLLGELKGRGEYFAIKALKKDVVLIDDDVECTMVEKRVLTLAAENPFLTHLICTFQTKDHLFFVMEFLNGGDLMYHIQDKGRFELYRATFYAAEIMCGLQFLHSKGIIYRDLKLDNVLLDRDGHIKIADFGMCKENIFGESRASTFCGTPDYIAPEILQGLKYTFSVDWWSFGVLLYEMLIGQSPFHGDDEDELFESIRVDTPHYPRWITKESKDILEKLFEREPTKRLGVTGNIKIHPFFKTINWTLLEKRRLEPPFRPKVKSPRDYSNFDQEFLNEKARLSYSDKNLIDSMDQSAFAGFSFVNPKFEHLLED

Substance | phosphorylation by PKC-delta (PKC-delta; peptide concentration 1 uM) | phosphorylation by PKC-delta (PKC-delta; peptide concentration 10 uM) | phosphorylation by PKC theta (PKC-theta; peptide concentration 1 uM) | phosphorylation by PKC theta (PKC-theta; peptide concentration 10 uM)
166 (MAQIERGEARIQRRISIKKA) [compound 166] | 13 | 29 | 13 | 13
167 (GLPAPGEDKSIYRRGSRRWR) [compound 167] | 13 | 24 | 12 | 14
